These results are taken from US6489446 (HSC RESEARCH AND DEVELOPMENT LIMITED PARTNERSHIP, dated 2002).

In series [1] the target is T1, matrix of insoluble elastin prepared from chicken aortic tissue (chicken, UniProt P07916 25-750).
T1 construct: mature; Insoluble cross-linked tissue matrix, not a defined soluble protein; also called chicken elastin; chicken elastin matrix
T1 sequence (looked up): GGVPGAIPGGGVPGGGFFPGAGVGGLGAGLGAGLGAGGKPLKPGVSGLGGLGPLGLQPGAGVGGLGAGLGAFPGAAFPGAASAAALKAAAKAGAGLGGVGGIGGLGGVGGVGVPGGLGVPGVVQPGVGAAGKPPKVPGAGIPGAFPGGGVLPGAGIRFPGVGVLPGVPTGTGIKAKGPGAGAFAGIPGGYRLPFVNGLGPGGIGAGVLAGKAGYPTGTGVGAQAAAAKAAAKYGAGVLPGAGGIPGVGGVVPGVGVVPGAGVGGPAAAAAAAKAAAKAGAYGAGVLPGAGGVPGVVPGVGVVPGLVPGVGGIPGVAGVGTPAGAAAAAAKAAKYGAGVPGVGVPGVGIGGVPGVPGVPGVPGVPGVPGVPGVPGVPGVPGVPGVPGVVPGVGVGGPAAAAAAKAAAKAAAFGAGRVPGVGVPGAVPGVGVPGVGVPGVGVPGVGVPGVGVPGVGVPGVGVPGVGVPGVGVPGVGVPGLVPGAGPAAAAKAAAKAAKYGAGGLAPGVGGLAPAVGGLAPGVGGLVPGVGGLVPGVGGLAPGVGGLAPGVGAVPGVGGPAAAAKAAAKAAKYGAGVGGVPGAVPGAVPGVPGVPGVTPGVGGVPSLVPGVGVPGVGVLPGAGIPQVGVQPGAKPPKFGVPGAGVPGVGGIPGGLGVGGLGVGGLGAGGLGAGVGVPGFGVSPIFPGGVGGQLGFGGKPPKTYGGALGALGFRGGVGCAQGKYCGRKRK
In words: estimate from bound radiolabelled MFU-1, assuming a 6 nm cross-sectional diameter. The procedure: A matrix of insoluble elastin was prepared from chicken aortic tissue by a cyanogen bromide extraction method. This insoluble, non-human elastin matrix was incubated for 16 hours at 37° in phosphate-buffered saline, at pH 7.4, in the presence of radioactively labeled human MFU-1 prepared as described above. The tissue was then washed extensively with phosphate-buffered saline at pH 7.4.
Estimation of surface coverage assumed a cross-sectional diameter of the human MFU-1 of 6 nm. It was estimated that about 1–3 µg of human MFU-1 per mg chicken elastin matrix remained firmly associated with the insoluble matrix of chicken elastin.

Series [2] deals with the molecule itself. As to the kind of experiment: coacervation of MFU-2 in solution; self-association.

B1: Minimal Functional Unit-1 (MFU-1) of human elastin (other)
chain: GAGGFPGFGVGVGGIPGVAGVPGVGGVPGVGGVPGVGISPEAQAAAAAKAAKYGVGTPAAAAAKAAAKAAQFGLVPGVGVAPGVGVAPGVGVAPGVGLAPGVGVAPGVGVAPGVGVAPAIGPGGVA
modifications: radioactively labeled valine and glycine (only in the chicken elastin experiments of Example 4)
notes: also called human elastin MFU-1; Fraction 1
For the molecule B1, the “surface coverage of the chicken elastin matrix” value in series [1] is ≤ 200 fold.

B2: MFU-2 of human elastin (other)
chain: FPGFGVGVGGIPGVAGVPGVGGVPGVGGVPGVGISPEAQAAAAAKAAKYGVGTPAAAAAKAAAKAAQFGLVPGVGVAPGVGVAPGVGVAPGVGLAPGVGVAPGVGVAPGVGVAPAIGPEAQAAAAAKAAKYGVGTPAAAAAKAAAKAAQFGLVPGVGVAPGVGVAPGVGVAPGVGLAPGVGVAPGVGVAPGVGVAPAIGP
notes: Tandem duplicate of MFU-1, expressed with techniques similar to those for MFU-1
For B2, the binding result in series [2] was “binds”.
